Entries after “also recorded” stand apart in the source; their conditions may differ.
How the values were obtained:
full-length Grb7 = test: Analytical ultracentrifugation: dimerisation of full-length Grb7; assay type: binding, human
Description: (§1) Figure 4 Sedimentation equilibrium analysis of the Grb7 SH2 and Grb7. (a) Absorbance at 280 nm verses radius data at sedimentation equilibrium for Grb7 SH2 at an initial loading concentration of 36 μM. The data collected at 14,000 rpm (circles), 16,600 rpm (squares), 24,300 rpm (diamonds) and 28,800 rpm (triangles) were fitted simultaneously using the nonlinear regression program. (b) Absorbance at 280 nm verses radius data at sedimentation equilibrium for Grb7 at an initial loading concentrations of 12 μM. The data collected at 10,000 rpm (circles) and 11,800 rpm (squares) were fitted simultaneously using the nonlinear regression program NONLIN [77]. The solid line represents the calculated fit to a monomer-dimer model. […]
(§2) Grb7 SH2 domain and full-length Grb7 were analysed at loading concentrations of A280 values of 0.1, 0.3 and 0.6. […] Absorption profiles were recorded at 280 and 360 nm with automatic dialysate absorption compensation. The data were recorded in 0.001-cm steps and ten scans were averaged to produce each profile. The system was deemed to be in equilibrium when profiles recorded 4 h apart were identical. The data were analysed by fitting models of association to the absorbance versus radial position distribution using the program NONLIN [48, 49]. […] The density of the buffer solution was calculated to be 1.00379 g/ml using the program […] v1.08 [74].

[1] = molecular target: pY1139 phosphopeptide (ErbB2) (Homo sapiens) (UniProt P04626); conditions: cited from earlier work
breast cancer cells = conditions: co-treatment with cell permeable G7-18NATE peptide, ref [19]; cited from earlier work
[2] = molecular target: the molecule itself; test: AUC; sedimentation equilibrium, 20°C, Grb7 SH2 at an initial loading concentration of 36 μM, 14,000-28,800 rpm, 50 mM MES pH 6.6, 100 mM NaCl, 1 mM DTT; global fit to a monomer-dimer model (NONLIN); dimer to monomers
Grb7 SH2 domain = molecular target: T1, Grb7 SH2 domain (Homo sapiens, UniProt Q14451); test: Analytical ultracentrifugation: dimerisation of Grb7 SH2 domain; assay type: binding
T1 construct: encoding residues 415-532 of human Grb7; GST (N, cleaved yes); made in house; host or cells: Escherichia coli BL21(DE3).pLysS
Description: as §1, §2

full-length Grb7: Full-length Grb7 (residues 1 – 532)
dimer formation (in words) (full-length Grb7): in the μM range; also recorded: forms dimers in vitro with a similar affinity to that exhibited by the SH2 domain alone; also recorded: same order of magnitude as that obtained for the SH2 domain alone

Grb7 SH2 (from UniProt Q14451)
Kd [1]: 2300 nM

COc1cccc2c1C(=O)c1c(O)c3c(c(O)c1C2=O)C[C@@](O)(C(=O)CO)C[C@@H]3O[C@H]1C[C@H](N)[C@H](O)[C@H](C)O1 [Doxorubicin]
change of drug EC50 on co-treatment (in words) (breast cancer cells): significant reduction of the drug EC50 value

B1: Grb7 SH2 domain (residues 415-532 of human Grb7) (domain or fragment)
chain: GSPASGTSLSAAIHRTQLWFHGRISREESQRLIGQQGLVDGLFLVRESQRNPQGFVLSLCHLQKVKHYLILPSEEEGRLYFSMDDGQTRFTDLLQLVEFHQLNRGILPCLLRHCCTRVAL
notes: first two of the 7 N-terminal residues of the construct, printed as GSPASGT; 15N-labelled (minimal medium with 15NH4Cl) for the NMR titration, unlabelled otherwise; Expected mass 13,672 g/mol; Residues 420-532 are seen in the crystal structure; also called 15N-Grb7 SH2
Kd [2]: 21.8 µM | stoichiometry N [2]: 2 | dimer association compared with previous experiments at 4 °C (in words) (Grb7 SH2 domain; 20 °C versus 4 °C, ref [38]): slightly weaker association | dimer formation (in words) (Grb7 SH2 domain; analytical ultracentrifugation): in the μM range
